B1: TPR t1 (parent)
chain: GACCAAUCUGCCCUCAGAGCUCGAGAACAUCUUCGGAUGCAGAGGAGGCAGGCUUCGGUGGCGCGAUAGCGCCAACGUCCUCAACCUCCAAUGCAUCCCACCACAUGAUGAUGCCUGAAGAGCCUUGGUUUUUUG

Variants of: B1
Test: polymerase ribozyme fitness, log enrichment relative to wild type (log ratio); higher = more active; in vitro selection for triplet polymerase activity
In short: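 Fitness measures genotype enrichment against wild-type enrichment on a logarithmic scale, with inverse-variance-weighted averaging of replicates. The logarithm is base 2, and genotypes were kept only with ≥10 input reads and ≥1 read per output in Illumina sequencing. The sequenced libraries came from one triplicate in vitro selection round, including frozen incubation at −7 °C, of PCR-built, transcribed mutant libraries of each subunit of a heterodimeric triplet polymerase ribozyme.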

Row | Variant | polymerase ribozyme fitness (log ratio)
1 | A6U C28G G45U C56G C64A G120C | -7.29
2 | A6C C40U G107U C124U | -4.44
3 | A6C U9C A46C C62U C82U | -0.79
4 | A6C U7A C8A A29C U55A C88G C94U | -2.74
5 | A6C C11G C40U C123U | 0.00495
6 | A6U C11G G69U C76A U125G | -2.63
7 | A6U A50U G57C A75U | -0.743
8 | A6U C13U G39C | -0.104
9 | A6G C8U C98G | -4.61
10 | A6C A37U G47U G52U G63C C124U | -4.06
11 | A6C G63A U87G C88A | -1.25
12 | A6G A74U C76U C115A | -0.102
13 | A6U C11G G48U C56U C64U A83C | -4.78
14 | A6G G117A C124U | -0.162
15 | A6U A37G G71A | -0.537
16 | A6G C11G G52U U59A G60C | -0.455
17 | A6U C53G C124U U129A | -0.73
18 | A6U C11U A46C G51C G57U A121C | -2.71
19 | A6U A16U A50C A83C U129G | -3.64
20 | A6C G45A | -2.73
21 | A6C A50U C76G U96G | -2.15
22 | A6C A27G C49U C79A U81A | -6.28
23 | A6U C49G G122A | -0.638
24 | A6U C72U U96C | -0.187

Row | Variant | polymerase ribozyme fitness (log ratio)
25 | A6U C40U | 0.421
26 | A6G G69A | -2.86
27 | A6C G93A | -1.25
28 | A6G C64U | 0.116
29 | A6G C72G C88U | -0.419
30 | A6C G48U C53U U59G C70U A90C | -4.07
31 | A6C G48U U87C G110U | -2
32 | A6U C34A | -1.85
33 | A6C C40G C56G | -2.36
34 | A6C A18U G47U U125G | -3.87
35 | A6G U87A U92C A95C C114U | -3.66
36 | A6U C11G G69U U125G | -1.05
37 | A6U C53U U54G G93U U106A U129A | -2.14
38 | A6U C49A C62U | -1.33
39 | A6C C72G A108G C115U | -4.82
40 | A6U A41C C79G G113C U133A | -4.49
41 | A6C G42C | -1.69
42 | A6U C12U G48A C56A G65U A95U C97G C101A U112G C114U | -7.26
43 | A6C C97A | -4.04
44 | A6G A46U | -1.37
45 | A6C C70G | -2.95
46 | A6C C70U | -0.65
47 | A6C U30G G61U A84C U112A | -3.92
48 | A6G G10U C56A G57A G58A G69U C86U | -1.09

Row | Variant | polymerase ribozyme fitness (log ratio)
49 | A6G C115A | 0.525
50 | A6G U87G A121C | 1.92
51 | A6U C62A A105C | -4
52 | A6G C8G C12A C28A C56G U81C U112A | -4.51
53 | A6C A43G U78G A91G | -2.53
54 | A6G C11G C70G A118U | -1.53
55 | A6U C62U U112G C115A U131C G135C | -1.02
56 | A6U A46G C70U U133A | -1.52
57 | A6U C72A A84U U132C | -0.139
58 | A6C G19A A41C C70A | -4.25
59 | A6U C40U A84G C89U G113U G122C | -5.19
60 | A6G G36U C80U C88U G110C C124U | -5.65
61 | A6G C11A U14A C28A G69U U78C | -3.37
62 | A6C C8A G60A U87A | -0.0712
63 | A6C G10A A37G G77A C79U C124A | -0.0414
64 | A6U C12A A103U | -4.89
65 | A6U C49U C53U C62A G110A | -5.45
66 | A6C U30G G63A A91U A100G C104G U109G | -5.44
67 | A6C C13G G17A A18G | -4.66
68 | A6G C11G A118U | 0.0523
69 | A6U C22A | -4.95
70 | A6G C13G A111C U112A | -1.87
71 | A6C C94U U106A G113C U126C U133G | -4.12
72 | A6U C13G A26U A43U C76A C115G | -7.08

Row | Variant | polymerase ribozyme fitness (log ratio)
73 | A6U A121C | 1.91
74 | A6G C8A U55A C62A | -0.384
75 | A6U C12A U78A C80U C86A G120A | -3.45
76 | A6C G42U C79U A90C | -0.731
77 | A6G C97U | -0.751
78 | A6C A83C C97U G110A | -1.92
79 | A6C G69U U78C | 0.0885
80 | A6G C12U G58A G113C | -1.75
81 | A6U C13A C40U C62A A95U | -3.6
82 | A6G G39A C86U G117A | -0.696
83 | A6G G69A C73A | -2.9
84 | A6G C15U C56U G69U U112A G117A | -1.54
85 | A6U C11U U14G A46C | -4.04
86 | A6C C73U C85A C114U | -3.29
87 | A6U A41U G61A C62G U112A | -6.58
88 | A6C G17C U87C | -3.71
89 | A6C C72G U87A U112A G113U G117C U130G | -5.39
90 | A6G C40U G51U | -4.1
91 | A6U C12A A16U G19U G42A G63U G93A U106A G120A U130A | -7.49
92 | A6G A24C C88G C102A A111U G122C U133G | -6.51
93 | A6U C15G A43U C115U U116G G120A G122A | -3.93
94 | A6U A27U A121G U130A | -0.823
95 | A6U C70U A105U U125A | -3.91
96 | A6C G47U G69C C85A | -4.06

Row | Variant | polymerase ribozyme fitness (log ratio)
97 | A6U C22A A43C C79G C97U | -8.2
98 | A6C G61U U92C U129C | -2.43
99 | A6C A50C G127A G128U | -3.5
100 | A6U C34G G45C C49A C123U | -5.99
101 | A6C G71C C79U | -0.784
102 | A6C C104A | -1.61
103 | A6U A74G | -0.0819
104 | A6C C79A | -0.901
105 | A6U C56U | 0.177
106 | A6C C101A | -1.63
107 | A6U C12U G110U U130C | -0.715
108 | A6G G39A | 0.16
109 | A6G C28G C115G U125G | -3.74
110 | A6C G52C | -0.394
111 | A6G G42C G52U | -2.37
112 | A6G C31A C64U C89G C123G | -6.4
113 | A6U C53G C99U | -4.03
114 | A6G G71A | -0.397
115 | A6U C8A G44U G107A U112A | -6.05
116 | A6U A43U U96A G122A | -2.28
117 | A6U A50G C97U C115U | -2.3
118 | A6U A46G C53G G117U | -2.98
119 | A6G G69U G120U | 0.637
120 | A6U A41G | 0.32

Row | Variant | polymerase ribozyme fitness (log ratio)
121 | A6G A41G A50G C70U | -0.773
122 | A6U C56U C85A | -2.08
123 | A6G G39A A68G C86U G117A | -5.73
124 | A6G C11U G48C C64U G113A G117A | -7.08
125 | A6G C11G C13G C99A C102U | -5.35
126 | A6G G19U C70U | -4.25
127 | A6C G44U C64U U96A C104A | -3.82
128 | A6G C13U G19U C56A | -3.79
129 | A6U C13U C62U U132A | -0.793
130 | A6C C20A A26C G60A U116C U132C | -7.63
131 | A6U A27U U81A | -3.93
132 | A6G G48U G63A | -0.619
133 | A6G U9C C13G G61C C89U A90U C94U A105U A121G | -5.89
134 | A6G G45C G63C U81C | -1.8
135 | A6C C13A G48C C49G | -3.01
136 | A6U C22A C40A G61U | -5.59
137 | A6G C11A C34A G47A A111C | -5.04
138 | A6U A90U C98G C102U A108U C123G | -6.7
139 | A6C A18U G52C C79U C89U C101U | -2.96
140 | A6U C13G G52A A111C U116G A121C | -1.83
141 | A6C G63U | -1.03
142 | A6U C64U U92G | -3.05
143 | A6C U81C U87G | -0.0503
144 | A6U C28U C123U | -0.417

Row | Variant | polymerase ribozyme fitness (log ratio)
145 | A6G G17C | -4.39
146 | A6G U112A | 1.64
147 | A6G G45C | -1.17
148 | A6G C8G G69U | 0.471
149 | A6U C40G A50U | -1.66
150 | A6G G48U G52C | -2.21
151 | A6G G39A C123U U133A | 0.797
152 | A6U C12G G45C A74U C94U | -0.942
153 | A6G C62U C73U U112G | 0.725
154 | A6C A41G C70U G117U | -7.14
155 | A6U C73A | 0.0629
156 | A6G U7A | 0.167
157 | A6U A18U | -2.27
158 | A6U C72A C102A C123G | 0.361
159 | A6G C40U C56U G127C | -1.94
160 | A6C G10A C13U G36U G51U G77C A90C G120U | -4.97
161 | A6G C98U U125G | -3.71
162 | A6G C12U G69C U112C C123A U131A | 0.491
163 | A6U C22U C64U C124U | -4.12
164 | A6G A18C U54C | -2.19
165 | A6U C12U A27U | -1.6
166 | A6G C80U C115G | -1.33
167 | A6C A46U C56U | -1.22
